Reference: publication PMC12525521, “N-Terminal Metal-Binding Domain of Arabidopsis IBR5 Is Important for Its in Planta Functions” (International Journal of Molecular Sciences, 2025)
Positions count from the first letter of the chain named. Numbers in names are those of the source. Where “and” joins values, the source holds several entries; their conditions need not be identical. Equal values may be shown once.

B1: SUMO-AtIBR5 (N-terminal 6X His-tagged SUMO fused to the 257-amino acid-long Arabidopsis thaliana indole-3-butyric acid response 5) (enzyme, UniProt Q84JU4 1-257, looked up)
chain: MRKRERENPCSICGHYHKYEEGEVCGVCGHCMPVSSDTVAPQQVHVSAFPSEILPEFLYLGSYDNASRSELLKTQGISRVLNTVPMCQNLYRNSFTYHGLDNEKVLQFDDAIKFLDQCEKDKARVLVHCMSGKSRSPAVVVAYLMKRKGWRLAESHQWVKQRRPSTDISPEFYQQLQEFEQGIFGSEMMSAMNINDAPTFGFGFPKIDNQAQAPVFNNAPTSSIFSSPASSIPPQEFTFGATPPKPTTGGDIAMDGS
notes: AtIBR5, dual-specificity phosphatase, Arabidopsis thaliana, UniProt Q84JU4, AT2G04550; One glycine residue (codon GGU) stands as a linker between the 6X His-SUMO tag and AtIBR5; Cloned with the Expresso T7 SUMO system (pETite N-His SUMO Kan vector); Expected monomer about 42 kDa; also called SUMO-AtIBR5 wild-type protein; source: E. coli BL21 HiControl, purified (Ni-NTA, SEC); not shown: His6, …
B2: SUMO-AtIBR5-q (quadruple mutant of SUMO-AtIBR5, all four conserved cysteine residues substituted with glycine) (enzyme, Arabidopsis thaliana, UniProt Q84JU4 1-257, looked up)
chain: B1 chain with C10G, C13G, C25G, C28G
notes: One glycine residue stands as a linker between the 6x His-SUMO tag and AtIBR5; also called quadruple AtIBR5 mutant; C10G C13G C25G C28G; source: E. coli BL21 HiControl, purified (Ni-NTA, SEC); not shown: His6, N-terminal, kept; SUMO, N-terminal, kept
B3: SUMO-AtIBR5-p (N-terminal 6x His-SUMO tag fused to aa 48-257 of AtIBR5, only the DSP_plant_IBR5-like domain) (domain or fragment, Arabidopsis thaliana, UniProt Q84JU4 48-257, looked up)
chain: AFPSEILPEFLYLGSYDNASRSELLKTQGISRVLNTVPMCQNLYRNSFTYHGLDNEKVLQFDDAIKFLDQCEKDKARVLVHCMSGKSRSPAVVVAYLMKRKGWRLAESHQWVKQRRPSTDISPEFYQQLQEFEQGIFGSEMMSAMNINDAPTFGFGFPKIDNQAQAPVFNNAPTSSIFSSPASSIPPQEFTFGATPPKPTTGGDIAMDGS
notes: One glycine residue stands as a linker between the 6x His-SUMO tag and the AtIBR5 stretch; also called N-terminally truncated AtIBR5; source: E. coli BL21 HiControl, purified (Ni-NTA, SEC); not shown: His6, N-terminal, kept; SUMO, N-terminal, kept

Biological target: the molecule itself
Assay: SEC; FPLC on HiPrep 26/60 Sephacryl S-300 HR after Ni-NTA purification; 100 mM Tris-HCl pH 8.0, 150 mM NaCl; sizes estimated from a standard curve with the Bio-Rad Gel Filtration Standard; His-SUMO tag kept

| Protein | stoichiometry N |
| --- | --- |
| B1 | 4 and 2 |
| B2 | 2 and 4 |
| B3 | 2 and 4 |
